The values below are quoted from earlier work in article PMC2582146 (Biochemistry, 2008).

The series concerns the target N1P1 domain. The following applies: read-out: affinity.

B1: C-terminal 70 residues of CFTR: C-terminal 70 residues of CFTR, literature construct (ref 41) (protein, UniProt P13569 1411-1480, looked up, fragment)
chain: QQFLVIEENKVRQYDSIQKLLNERSLFRQAISPSDRVKLFPHRNSSKCKSKPQIAALKEETEEEVQDTRL
For the molecule B1, the Kd was 298 nM.
